This note sets out measurements from patent publication US20230034906A1 (TRINOMAB BIOTECH, published 2023).

Test [1] deals with gB glycoprotein of HCMV standard strain Towne, on the virus (human cytomegalovirus, strain Towne, UniProt P13201 23-907). In words: cell-based or functional assay.
Test [2] concerns the target T1, homologous sequence of gB glycoprotein of 56 virus strains (gB_Con. Strain) (human cytomegalovirus (homologous …, UniProt P06473 25-699)).
T1 construct: C-terminal tags are part of the entry
T1 chain: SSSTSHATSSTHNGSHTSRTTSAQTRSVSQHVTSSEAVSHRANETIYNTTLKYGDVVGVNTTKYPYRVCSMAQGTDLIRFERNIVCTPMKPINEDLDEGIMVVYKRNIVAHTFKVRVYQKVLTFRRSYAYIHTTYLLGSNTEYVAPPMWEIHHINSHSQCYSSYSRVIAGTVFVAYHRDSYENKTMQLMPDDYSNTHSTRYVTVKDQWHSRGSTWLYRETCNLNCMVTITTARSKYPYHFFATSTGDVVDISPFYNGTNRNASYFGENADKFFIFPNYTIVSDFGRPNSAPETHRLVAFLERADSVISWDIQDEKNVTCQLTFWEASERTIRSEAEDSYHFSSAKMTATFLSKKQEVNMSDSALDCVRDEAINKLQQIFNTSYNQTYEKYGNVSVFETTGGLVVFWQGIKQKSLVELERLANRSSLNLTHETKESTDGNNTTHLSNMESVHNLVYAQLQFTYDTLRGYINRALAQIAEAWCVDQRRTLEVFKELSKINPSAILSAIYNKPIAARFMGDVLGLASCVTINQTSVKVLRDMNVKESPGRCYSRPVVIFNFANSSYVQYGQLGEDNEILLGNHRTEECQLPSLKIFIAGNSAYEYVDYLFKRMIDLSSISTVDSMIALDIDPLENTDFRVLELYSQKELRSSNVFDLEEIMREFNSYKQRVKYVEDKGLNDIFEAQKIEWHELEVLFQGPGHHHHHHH
In words: ELISA, HEK293 culture supernatant on gB.

Test [3] addresses T2, HCMV gB glycoprotein of standard strain Towne (gB_Towne strain) (human cytomegalovirus, strain Towne, UniProt F5HB53 25-700).
T2 construct: also called antigen protein gB0049
Kind of test: SPR (Biacore), antibody captured by anti-human IgG (Fc) on CM5 chip, gB in solution. In general terms: SPR reads the build-up and loss of mass on a sensor chip optically.

For test [4], the target named is T3, gB_Towne protein with N383 mutated into glutamine (human cytomegalovirus, strain Towne, UniProt F5HB53 25-700).
T3 chain: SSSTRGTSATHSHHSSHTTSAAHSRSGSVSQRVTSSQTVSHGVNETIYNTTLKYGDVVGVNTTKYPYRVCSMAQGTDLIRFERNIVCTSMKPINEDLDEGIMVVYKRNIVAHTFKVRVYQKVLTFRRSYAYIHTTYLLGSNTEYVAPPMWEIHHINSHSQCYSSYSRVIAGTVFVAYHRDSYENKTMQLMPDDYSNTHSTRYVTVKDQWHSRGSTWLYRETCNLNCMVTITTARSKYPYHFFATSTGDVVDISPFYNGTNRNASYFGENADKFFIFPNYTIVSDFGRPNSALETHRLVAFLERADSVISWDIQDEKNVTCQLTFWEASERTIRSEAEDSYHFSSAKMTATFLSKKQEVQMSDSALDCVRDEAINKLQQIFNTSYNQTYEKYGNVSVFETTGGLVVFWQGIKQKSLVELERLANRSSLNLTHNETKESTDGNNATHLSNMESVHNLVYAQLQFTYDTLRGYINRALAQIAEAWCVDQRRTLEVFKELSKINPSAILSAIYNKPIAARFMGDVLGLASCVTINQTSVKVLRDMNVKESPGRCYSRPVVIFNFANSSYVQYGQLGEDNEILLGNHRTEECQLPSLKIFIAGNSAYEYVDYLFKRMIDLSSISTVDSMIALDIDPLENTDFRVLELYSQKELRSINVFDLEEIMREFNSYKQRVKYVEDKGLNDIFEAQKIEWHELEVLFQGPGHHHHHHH
In words: indirect ELISA, antibody titrated on gB glycoprotein mutant. (In general: ELISA stands for enzyme-linked immunosorbent assay.)

Sequence of gB glycoprotein of HCMV standard strain Towne, on the virus (P13201 23-907 limits assumed): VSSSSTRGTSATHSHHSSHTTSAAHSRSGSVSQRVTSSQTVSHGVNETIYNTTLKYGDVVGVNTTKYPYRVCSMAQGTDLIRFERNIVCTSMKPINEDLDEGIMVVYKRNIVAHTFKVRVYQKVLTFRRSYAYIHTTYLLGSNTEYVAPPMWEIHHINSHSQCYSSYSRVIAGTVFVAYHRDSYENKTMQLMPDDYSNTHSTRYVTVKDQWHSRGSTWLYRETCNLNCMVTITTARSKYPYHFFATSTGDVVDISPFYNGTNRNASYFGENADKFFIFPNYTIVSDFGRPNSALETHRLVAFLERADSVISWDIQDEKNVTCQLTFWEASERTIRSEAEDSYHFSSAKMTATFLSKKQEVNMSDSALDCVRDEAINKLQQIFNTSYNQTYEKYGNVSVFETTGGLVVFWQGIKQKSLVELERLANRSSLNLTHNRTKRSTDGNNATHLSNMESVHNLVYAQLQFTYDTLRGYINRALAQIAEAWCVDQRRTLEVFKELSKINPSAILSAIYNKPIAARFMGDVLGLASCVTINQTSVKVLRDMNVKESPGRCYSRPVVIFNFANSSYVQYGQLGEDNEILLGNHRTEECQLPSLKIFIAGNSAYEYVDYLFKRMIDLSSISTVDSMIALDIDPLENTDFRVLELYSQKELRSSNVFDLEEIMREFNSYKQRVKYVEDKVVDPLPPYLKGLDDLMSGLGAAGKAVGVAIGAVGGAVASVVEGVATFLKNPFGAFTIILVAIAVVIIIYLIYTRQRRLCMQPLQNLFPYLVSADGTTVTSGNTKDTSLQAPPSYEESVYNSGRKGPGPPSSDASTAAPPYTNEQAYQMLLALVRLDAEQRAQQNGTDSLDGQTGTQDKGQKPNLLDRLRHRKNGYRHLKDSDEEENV

B1: TRN1020 (antibody, V domains shown)
VH: EVQLVESGGGLAQPGGSLRLSCEASGFSFSTYAMSWVRQAPGKGLEWVAAVSGRGTSTFYLDSVKGRFTVSRDNSRTTVFLQMNSLKVEDTAFYYCAKDSYVGGSFDWLPRPDYFDHWGRGVLVTVSS
VL: QSVLTQPPSLSATPGQTVTISCSGSNSNIGKNYVSWYQQLPGAAPKLLLYNNNLRPSGIPARFSGSKSGTSATLGITGLQAGDEATYSCATWDKTLNFWVFGGGTKVTVLG
notes: Fully human antibody; lambda light chain
A word on the Kd: it is a measure of binding affinity in units of concentration. A higher Kd goes with a looser complex. B1: the “EC50 of neutralizing Towne virus infection in primary HUVEC cells” value in test [1] worked out at 0.041 µg/mL. Moreover, the binding result in test [2] was “binds”. The same molecule yielded a dissociation constant Kd in test [3] of 0.6 nM.

B2: TRN1018 (antibody, V domains shown)
VH: QVQLVQSGGGVVQPGRSLRLSCAASGFTFSNHGIHWVRQAPGKGLEWVAVISSDGTDTRDADSVRGRFTISRDNSRNTVYLDMNSLRAEDTAVYYCARDGRCGDERCYSGLPDVWGRGTRVSVSS
VL: EIVLTQSPATLSLSPGERATLSCRASQSVGGYLAWYQQKVGQAPRLLIYDASNRATGIPARFSGSGSGTDFTLTISSLEPEDFAVYYCQQRSNWPPLTFGGGTKVEIKR
notes: Fully human antibody; kappa light chain
For B2, the binding result in test [2] is given as “binds”. The molecule also showed a dissociation constant (Kd) in test [3] of 27.9 nM.

B3: TRN1017 (antibody, V domains shown)
VH: QVLLVQSGGGLVQPGGSLRLACETSGFTFRHYWMHWVRQAPGKGLVWLSSIHGSGTTTRYADSVKGRFTISRDNAKNILFLQINSPRPEDTATYYCVRDDYTSGYNWGQGAFVTVSS
VL: QSALTQPASVSGSRGQSITIPCTGSRSDVGGYNYVSWYQQRPGKAPKLILYDVSHRPSGISDRFSGSKLGDTASLTISGLRDEDEADYYCSSYTTKSTLYVFGTGTTVSVLG
notes: lambda light chain; expressed in HEK293 cells
Consider B3, for which the “EC50 of neutralizing Towne virus infection in primary HUVEC cells” value in test [1] was determined as 0.089 µg/mL. In addition, the binding result in test [4] is given as “binds”.
